Test results as given in the Human Domainome abundance scans (Beltran et al. 2025).

B1: Far upstream element-binding protein 1, residues 184 to 257; numbered along this chain, Q96AE4 (parent)
chain: GNAVQEIMIPASKAGLVIGKGGETIKQLQERAGVKMVMIQDGPQNTGADKPLRITGDPYKVQQAKEMVLELIRD

Variants of: B1
Assay: abundance fitness (aPCA) (normalised: wild type 0, dead -1); higher = more abundant; growth selection in yeast, the domain comes from the species named
Details: Homo sapiens

Abundance fitness: each site, then its substitutions
G56: H -1.09; R -1.04; S -1.02; P -1.18; N -0.668; I -1.14; F -0.971; L -1.28; C -1.08; T -1.12; Y -1.25; E -1.05; Q -0.962; W -1.22; K -0.942; V -1.26; D -0.803; A -1.01
D57: C -0.093; A -0.017; W -0.387; N -0.083; P -0.018; F -0.285; Q -0.018; V -0.085; H -0.022; Y -0.208; E 0.019; G -0.218; M -0.138; T -0.028; L -0.119
N45: S -0.057; P -0.055; R -0.022; Y -0.091; D 0.013; W -0.105; E -0.024; I -0.029; L -0.128; V -0.057; K -0.008; A -0.019; G -0.008; H -0.022; M -0.055; F 0.023
P51: E -0.014; F -0.077; C -0.005; D -0.358; A -0.011; M 0.028; W -0.066; H -0.026; Y -0.059; R 0.007; K -0.03; T -0.018; Q -0.108; L -0.057; I -0.086; N -0.049
L52: W -0.738; T -0.878; S -0.918; I -0.055; M -0.047; K -0.841; C -0.229; Q -0.97; E -0.956; N -0.746; V -0.145; D -0.702; G -0.886; A -0.807; H -0.853
D49: A -0.029; L -0.052; N -0.034; V -0.068; K -0.087; G -0.084; T -0.045; F -0.081; W -0.114; I -0.148; S -0.077; Q -0.096; Y -0.015; P -0.01; C -0.057; R -0.129; H -0.012
D41: T -0.052; N 0.047; C -0.034; A -0.077; F -0.189; M -0.089; Y -0.139; V -0.023; H -0.048; L -0.095; K -0.007; E 0.009; G -0.009; Q -0.006; R -0.052
Y59: H 0.044; A 0.011; C -0.003; L 0.026; D 0.057; P 0.015; N 0.047; R 0.032; M -0.043; V -0.024; G 0.029; W 0.021; K 0.036; E 0.009; F -0.003; I 0.046; T 0.047; S 0.006
A48: G 0.002; W -0.124; I 0.005; D 0.077; M 0.02; T 0.013; S -0.035; N -0.086; V -0.015; E 0.021; K 0.003; F -0.01; R -0.018; P -0.042; C 0.053
Q40: Y -0.049; F -0.027; V -0.052; S -0.042; I -0.147; H -0.146; T -0.059; R -0.053; W -0.086; E -0.067; M -0.085; K -0.025; L -0.076; P -0.052
T46: R -0.046; F -0.085; P -0.012; G -0.024; V -0.004; S -0.04; N -0.074; H -0.055; A -0.073; C -0.058; W -0.136; M -0.028; L -0.038; Y -0.115; Q -0.022; I -0.062; K -0.066
K60: A -0.036; C 0.002
P58: E -0.004; K -0.016; N -0.139; Q -0.079; T -0.002; R 0; A -0.012; C -0.1; Y -0.022; G -0.034; S -0.064; H -0.003; L -0.068; W -0.044; M -0.014; V -0.031
G47: N -0.034; A -0.02; K 0.061; W -0.157; L -0.069; I -0.168; E -0.038; R -0.096; P -0.108; D -0.043; Q -0.027; M -0.043; V -0.054; H -0.167; T -0.018; F -0.014; S -0.001
T55: D -0.111; M -0.008; Y -0.132; E -0.086; L -0.05; W -0.115; R -0.152; N -0.138; P -0.963; Q -0.022; K -0.165; C -0.065; H -0.096; I -0.023; F -0.062; S -0.053; V -0.047
Q44: I -0.046; R -0.048; M -0.007; E -0.06; W -0.088; C -0.083; F -0.082; P 0.006; A -0.008; D 0.004; G 0.007; L -0.055; Y -0.002; H 0.042; K 0.038; V -0.067; N 0.02; S -0.04
K50: D -0.525; L 0.019; C -0.057; T -0.019; A -0.027; P -0.202; H -0.04; I -0.068; S -0.068; Y 0.018; V -0.005; N -0.071; E -0.202; W -0.058; M -0.035; G -0.201; R -0.005
R53: I -0.049; E -0.116; K -0.025; H -0.046; N -0.257; T 0.008; Q -0.009; A -0.14; L -0.075; S -0.148; W -0.205; M -0.031; F -0.116; C -0.111; G -0.52; P -0.941; D -0.616
I54: A -0.807; Y -1.19; W -1.06; Q -0.902; K -0.878; M -0.074; S -0.522; D -0.829; H -1.03; N -1.22; F -0.175; T -0.723; P -1.08; E -0.883; L -0.069; G -0.913; V -0.148; R -1.06; C -0.504
G42: S 0.009; H -0.082; R -0.022; C -0.037; N -0.059; D -0.069; E 0.007; A -0.028; M -0.084; I -0.052; W -0.33; Y 0.055; L -0.158; F -0.078; K 0.049; Q -0.029; P -0.059
P43: G 0.05; N -0.123; T -0.119; C -0.049; D -0.055; E -0.01; S 0.04; L -0.053; A 0.023; I -0.011; M -0.016; K 0.064; H 0.003; W -0.022; Q -0.057; R -0.012; F -0.079; Y -0.003
